Test results published in patent US20250197484A1 (ECO ANIMAL HEALTH, published 2025).
Like-named read-outs stand apart in the source and are kept apart here.

B1: Net_14 (VHH)
VHH: QVQLVESGGGLVQAGGSVRLSCVASGLTFSGYSLGWFRQAPGKEREGVSYISSSGMITDYADSVKGRVTISRDDAKSTMYLQMNSLKPEDTAVYYCAARFPRPRSWLSTDSYNYWGQGAQVTVSS
B2: Net_83 (VHH)
VHH: QVQLVESGGGLVQAGESLRLSCAASGSIRSISFMNWYRQQPGKQRELVAGINQIGNTNYAGSVKGRFTISRDNAKNTVYLQMNSLKPEDTAVYYCNVIVRGTVSPFQFWGQGTQVTVSS

Legend:
[1] = target: T1, Clostridium perfringens NetB toxin (necrotic enteritis B-like toxin) (Clostridium perfringens); test: cell-based or functional assay
[2] = target: T1, Clostridium perfringens NetB toxin …
[3] = target: T1, Clostridium perfringens NetB toxin …; test: SPR (Biacore 8K+), single cycle kinetics, NetB toxin immobilised, pH 7.4
[4] = target: T1, Clostridium perfringens NetB toxin …; test: cell-based or functional assay; remark: listed apart in the source
[5] = target: T1, Clostridium perfringens NetB toxin …; remark: listed apart in the source

Binder	IC50, inhibition of NetB-induced RBC lysis, 0 min incubation with 30 U/ml pepsin [1]	EC50 (read off the curve) [2]	Kd [3]	koff [3]	kon [3]	IC50 of NetB-induced RBC lysis inhibition after incubation in water, Day 0 [4]	IC50 of NetB-induced RBC lysis inhibition after incubation in water, Day 1 [4]	IC50 of NetB-induced RBC lysis inhibition after incubation in water, Day 4 [4]	EC50 (read off the curve) [5]
B1	23 nM	~0.02 µg/mL	0.095 nM	6.32e-05 s⁻¹	668000 M⁻¹ s⁻¹	44.2 nM	53 nM	51.1 nM	–
B2	61 nM	–	0.213 nM	0.000248 s⁻¹	1.17e+06 M⁻¹ s⁻¹	163 nM	168 nM	245 nM	~0.03 µg/mL
